The values below come from US20160340422A1 (BEIJING HANMI PHARMACEUTICAL, published 2016).

One test deals with Human IL-17A (human, UniProt Q16552 24-155). The test can be described thus: cell-based or functional assay.
The next test has as its target T1, Mouse IL-17A (mouse, UniProt Q62386 26-158, limits assumed).
T1 construct: Bought recombinant protein; also called mice IL-17A
T1 sequence (looked up): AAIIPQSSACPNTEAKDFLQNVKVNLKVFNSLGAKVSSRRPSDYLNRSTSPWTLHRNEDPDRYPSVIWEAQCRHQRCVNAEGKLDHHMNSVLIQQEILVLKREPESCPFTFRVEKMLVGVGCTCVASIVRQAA
The test can be described thus: ELISA, coated mouse IL-17A, HRP anti-mouse IgG.

Chain of Human IL-17A (Q16552 24-155 limits assumed): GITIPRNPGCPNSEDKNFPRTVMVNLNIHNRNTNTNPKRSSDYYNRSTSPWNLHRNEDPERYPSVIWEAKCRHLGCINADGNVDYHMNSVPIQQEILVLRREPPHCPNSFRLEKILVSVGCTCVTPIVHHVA
Description for Mouse IL-17A: The plated is blocked with PBST comprising 1% BSA, 300 μL/well, and incubated at 25° C. for at least 1 hour. The plate is washed with PBST for 5 times. Samples to be tested is added at a specific concentration, which are diluted in PBST comprising 1% BSA, 100 μL/well, and incubated at 25° C. for 1 hour. The plate is washed with PBST for 5 times. Then a horse radish peroxidase labeled anti-mouse IgG antibody (1:10,000, in PEST comprising 1% BSA) (Abeam, product No. Ab7068) is added, 100 U L/well, and incubated at 25° C. for 1 hour. The plate is washed with PBST for 5 times. […] 1M H₂SO₄is added with 100 μL/well to terminate the colorimetric development. The Absorbance at 450 nm is read on ELISA.

B1: Control antibody A (antibody, mouse IgG2a, kappa, V domains shown)
VH: QVQLKESGPGLVQPSQTLSLTCTVSGFSLTNYYVHWVRQPPGKGLEWMGGVWNDGDTSYNSVLRSRLSITRDTSKSQVLLKMSSLQTEDTATYYCAREGREGFVGYYVMDAWGPGASVTVSS
VL: DIQMTQSPSFLSASVGERVTLSCKASQNINKYLDWFQQKLGEAPKLLIYNADNLHTGIPSRFSGSGSFSDFILTISSLQPEDDATYFCLQRESWPYTFGAGTKLELKR
notes: Corresponds to the anti-IL-17A antibody moiety of bifunctional fusion proteins A and C; also called anti-IL-17A antibody (rat 1D10 variable region, mouse IgG2a constant region); anti-IL-17A mAb
B1: the “IC50 for inhibiting GROα secretion from HT-29 cells induced by IL-17A” value with Human IL-17A came out at 0.532 nM. The binding result with Mouse IL-17A was “binds”.
